Experimental data published in IntAct's records for PubMed 30262834.

Molecular target: lrrt2_human LRRTM2 (UniProt O43300)
Sequence (O43300 whole entry): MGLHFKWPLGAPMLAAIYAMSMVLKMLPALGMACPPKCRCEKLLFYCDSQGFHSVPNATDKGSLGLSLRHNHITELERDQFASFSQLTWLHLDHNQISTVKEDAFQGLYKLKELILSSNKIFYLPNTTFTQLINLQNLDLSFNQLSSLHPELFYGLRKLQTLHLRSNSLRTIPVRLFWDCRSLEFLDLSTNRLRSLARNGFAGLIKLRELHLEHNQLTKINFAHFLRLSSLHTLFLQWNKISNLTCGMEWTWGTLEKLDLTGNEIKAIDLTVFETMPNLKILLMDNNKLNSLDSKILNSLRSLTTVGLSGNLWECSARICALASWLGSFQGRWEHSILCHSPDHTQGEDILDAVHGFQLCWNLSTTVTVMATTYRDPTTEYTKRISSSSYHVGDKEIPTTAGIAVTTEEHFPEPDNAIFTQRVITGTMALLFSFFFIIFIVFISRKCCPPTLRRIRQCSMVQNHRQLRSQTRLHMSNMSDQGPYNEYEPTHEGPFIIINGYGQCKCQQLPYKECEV

Neurexin-1-beta (Homo sapiens), P58400-1 D141A, sequence (P58400 other isoform, or with tags, fused parts or gaps D141A): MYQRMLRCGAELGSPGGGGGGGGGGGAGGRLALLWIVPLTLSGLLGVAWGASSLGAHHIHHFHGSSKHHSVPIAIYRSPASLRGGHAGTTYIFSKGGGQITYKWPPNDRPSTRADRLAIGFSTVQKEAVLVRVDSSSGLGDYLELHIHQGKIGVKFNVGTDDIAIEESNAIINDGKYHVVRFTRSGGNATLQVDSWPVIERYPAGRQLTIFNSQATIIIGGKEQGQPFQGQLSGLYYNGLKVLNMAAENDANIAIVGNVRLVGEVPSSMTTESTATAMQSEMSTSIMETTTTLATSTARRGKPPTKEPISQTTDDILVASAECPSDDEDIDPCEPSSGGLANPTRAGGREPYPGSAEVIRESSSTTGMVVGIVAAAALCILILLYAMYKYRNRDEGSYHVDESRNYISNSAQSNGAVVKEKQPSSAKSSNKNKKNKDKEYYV

Neurexin-1-beta (Homo sapiens), P58400-1 D141A
effect of a mutation on the interaction: disrupting interaction strength
